From paper PMC314469, “Protein Interaction Networks by Proteome Peptide Scanning” (PLoS Biology, 2004)

T1: amphyphisin SH3 (AMPH_HUMAN), P49418
T1 chain: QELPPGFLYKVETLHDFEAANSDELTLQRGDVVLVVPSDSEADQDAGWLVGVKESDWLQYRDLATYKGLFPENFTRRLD


Assays:
[1] = target: endophilin SH3 (SH3G2_HUMAN), Q99962; test: SPOT array
[2] = target: T1, amphyphisin SH3 (AMPH_HUMAN), P49418; test: SPOT array

Binder	normalised SPOT signal, Boehringer light units (BLU); mean over the file's lines of this peptide [1]	normalised SPOT signal, Boehringer light units (BLU); mean over the file's lines of this peptide [2]
ILSPPRRPRHSQPA [Q8WYU9 180-193]	797	344
IPERPLRPPSEKRA [Q9Y2W3 72-86]	7610	11100
IQVAFRRPETPSSG [Q9H8D9 51-64]	5.6	55.7
ILRPPRRPRKPKTL [Q9NYS8 1488-1501]	1310	7790
ISMKFLRPLRVLSQ [Q01118 1027-1040]	925	13100
IQEALKRPIKQKRK [Q9Y635 106-119]	89.8	92.2
ISRRLRRPPHVGRA [O00155 224-237]	5.9	56.5
ISHRLRRPGAPPST [Q9H669 126-139]	120	9.8
ISSVPRRPARALHP [Q9HBK4 869-882]	5010	12900
ISFHPKRPMHILLH [Q96SZ9 375-388]	524	56.1
IPQRPSRPARRPLG [Q9HBL3 242-255]	84800	27600
IQAPPPRPPKNQGL [Q9BYB6 252-266]	2290	861
IRQILSRPERLLFI [Q9C000 395-408]	398	973
ISELIKRPNVSPKV [Q9NX58 81-94]	14.7	30.6
IMFDLRRPPQNHTY [Q9HCC8 352-365]	230	62.4
ISFHPKRPVHILLH [Q96T13 405-418]	173	27.3
ILLSISRPYKTKPT [Q9Y5J0 40-53]	130	173

Next, values leading:

normalised SPOT signal, Boehringer light units (BLU); mean over the file's lines of this peptide [1]	normalised SPOT signal, Boehringer light units (BLU); mean over the file's lines of this peptide [2]	Binder
39.9	38.3	IRFKLKRPLEDGGR [O95444 196-209]
353	48	ALRWLRRPEDRAFS [Q13472 9-22]
32.8	59	IPREPGRPGKGNYW [Q12950 67-80]
19900	4960	IRLPPARPPTPGRS [AAM34265 504-518]
0	26.3	IRSALKRPVEQPLG [P48165 231-244]
54.1	97.3	IRGLLARPAKLQVQ [P07202 539-552]
492	1350	ALSRLARPQRLPVA [P80365 68-81]
112	727	ALSLPEKPPRGEQG [O94819 607-621]
109	71.7	IQEALKRPMKQKRK [Q92926 129-142]
23.1	30.9	ILPDFKRPASFGTY [O43844 486-499]
1100	186	IRLSPNRPPLGGSS [P98161 2462-2476]
130	42.4	ISFIIKRPFLEPKK [P78347 180-193]
366	1320	ILPSLSRPARSDQA [O43149 568-581]
29.8	28.5	IQFVIKRPELLTEG [O95444 633-646]
